T1: Arabidopsis thaliana PEX22 residues 111-283 (soluble PEX4-interacting domain) (Arabidopsis thaliana, UniProt Q9LSX7 111-283)
T1 construct: two N-terminal residues left from the PreScission cleavage site (LEVLFQ|GP); Made on one chain with His6-MBP-PEX4 and separated from it by PreScission cleavage; also called At PEX22; source: purified (Ni-NTA), released with PreScission protease
T1 sequence: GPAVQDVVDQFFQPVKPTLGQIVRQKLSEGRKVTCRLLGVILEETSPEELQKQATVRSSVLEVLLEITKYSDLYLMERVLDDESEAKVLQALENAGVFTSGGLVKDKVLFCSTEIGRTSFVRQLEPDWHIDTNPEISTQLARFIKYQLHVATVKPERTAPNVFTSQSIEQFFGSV


Legend:
[1] = target: Pex22 (Saccharomyces cerevisiae) (UniProt P39718); details: cited from earlier work
Chain of Pex22 (Saccharomyces cerevisiae) (P39718 whole entry, the tested form may be a part): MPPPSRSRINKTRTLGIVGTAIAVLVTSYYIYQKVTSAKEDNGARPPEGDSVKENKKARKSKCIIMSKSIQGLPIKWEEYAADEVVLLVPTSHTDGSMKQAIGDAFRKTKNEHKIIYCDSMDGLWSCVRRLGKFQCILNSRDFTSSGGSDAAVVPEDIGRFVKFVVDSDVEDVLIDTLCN

[2] = target: T1, Arabidopsis thaliana PEX22 residues …; assay: crystal structure; PEX4-PEX22^111-283 complex from the cleaved fusion, 20 mg/mL in 20 mM Tris pH 7.5, 200 mM NaCl, 1 mM DTT; sitting drop vapor diffusion at 20°C; 100 mM NaCl, 100 mM Bis-Tris Propane pH 9.0, 25% (w/v) PEG 1,500; details: both partners purified
[3] = target: T1, Arabidopsis thaliana PEX22 residues …; assay: pull-down; purified fusion cut with PreScission protease; His6-MBP-PEX4 or His6-MBP-pex4^P123L held on Ni-NTA resin, 1 h at 4°C; washed with buffer A (25 mM HEPES pH 8, 300 mM NaCl, 5% glycerol, 1 mM TCEP), eluted with buffer B (500 mM imidazole); SDS-PAGE and Coomassie staining; details: both partners purified

Chain of Pex4 (P29340 whole entry): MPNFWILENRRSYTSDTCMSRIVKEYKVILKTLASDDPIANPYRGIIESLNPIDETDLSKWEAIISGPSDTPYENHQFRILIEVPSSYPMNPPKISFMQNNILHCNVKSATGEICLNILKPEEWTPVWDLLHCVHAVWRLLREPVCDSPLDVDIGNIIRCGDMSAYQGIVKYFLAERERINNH

Molecule	binding result [3]	other results
Pex4 (from UniProt P29340)	–	Kd [1]: 2 nM
Arabidopsis thaliana PEX4 (full-length, His6-MBP removed) (enzyme, one residue left after the TEV protease cleavage site (ENLYFQ|S); residue 0 at the N-terminus; PEX4 (UBC21), Arabidopsis thaliana, At5g25760, full-length without stop codon, residues 1-157; six C-terminal residues left from the PreScission cleavage site (LEVLFQ|GP); residues 158-163; Model in PDB 6XOD holds residues 1-154; residue 0, 155-157 and 158-163 were disordered; also called At PEX4; …) SMQASRARLFKEYKEVQREKVADPDIQLICDDTNIFKWTALIKGPSETPYEGGVFQLAFSVPEPYPLQPPQVRFLTKIFHPNVHFKTGEICLDILKNAWSPAWTLQSVCRAIIALMAHPEPDSPLNCDSGNLLRSGDVRGFNSMAQMYTRLAAMPKKGLEVLFQ	–	binding result [2]: binds
His6-MBP-PEX4 (Arabidopsis thaliana PEX4, full-length, after PreScission cleavage of the fusion) (enzyme, PEX4 (UBC21), Arabidopsis thaliana, At5g25760, full-length without stop codon; C-terminal residues left from the PreScission cleavage site (LEVLFQ|GP); His6-MBP is joined to PEX4 by a linker with an uncut TEV site (ENLYFQ|S); source: purified (Ni-NTA), cleaved with PreScission protease only; not shown: His6, N-terminal, kept; MBP, N-terminal, kept) MQASRARLFKEYKEVQREKVADPDIQLICDDTNIFKWTALIKGPSETPYEGGVFQLAFSVPEPYPLQPPQVRFLTKIFHPNVHFKTGEICLDILKNAWSPAWTLQSVCRAIIALMAHPEPDSPLNCDSGNLLRSGDVRGFNSMAQMYTRLAAMPKKGLEVLFQ	binds	–
His6-MBP-pex4^P123L (pex4-1 protein, after PreScission cleavage of the fusion) (enzyme, Arabidopsis thaliana, PEX4 (UBC21), Arabidopsis thaliana, At5g25760, full-length without stop codon, with the pex4-1 missense change P123L; C-terminal residues left from the PreScission cleavage site (LEVLFQ|GP); pex4-1 is a missense allele isolated in a forward-genetic screen; His6-MBP is joined by a linker with an uncut TEV site (ENLYFQ|S); source: purified (Ni-NTA), cleaved with PreScission protease only; not …) MQASRARLFKEYKEVQREKVADPDIQLICDDTNIFKWTALIKGPSETPYEGGVFQLAFSVPEPYPLQPPQVRFLTKIFHPNVHFKTGEICLDILKNAWSPAWTLQSVCRAIIALMAHPEPDSLLNCDSGNLLRSGDVRGFNSMAQMYTRLAAMPKKGLEVLFQ	binds	–

Source: paper PMC8922245, “The Structure of the Arabidopsis PEX4-PEX22 Peroxin Complex—Insights Into Ubiquitination at the Peroxisomal Membrane” (Frontiers in Cell and Developmental Biology, 2022)
